B1: rhHAPLN1: recombinant human HAPLN1 protein of SEQ ID NO: 1 produced in CHO-K1 cells, stabilized in acetic acid buffer, sucrose, PS80, pH 5.0 (protein, listed as Homo sapiens)
chain: MKSLLLLVLISICWADHLSDNYTLDHDRAIHIQAENGPHLLVEAEQAKVFSHRGGNVTLPCKFYRDPTAFGSGIHKIRIKWTKLTSDYLKEVDVFVSMGYHKKTYGGYQGRVFLKGGSDSDASLVITDLTLEDYGRYKCEVIEGLEDDTVVVALDLQGVVFPYFPRLGRYNLNFHEAQQACLDQDAVIASFDQLYDAWRGGLDWCNAGWLSDGSVQYPITKPREPCGGQNTVPGVRNYGFWDKDKSRYDVFCFTSNFNGRFYYLIHPTKLTYDEAVQACLNDGAQIAKVGQIFAAWKILGYDRCDAGWLADGSVRYPISRPRRRCSPTEAAVRFVGFPDKKHKLYGVYCFRAYN

Assays:
[1] = test system: bleomycin-induced pulmonary fibrosis; settings: orally once daily, 14-day and 28-day groups; cited from earlier work
[2] = test system: bleomycin-induced pulmonary fibrosis (BIPF); assay: Bleomycin-induced pulmonary fibrosis mouse model, treatment (inhalation from day 8); assay type: in vivo
Procedure: An experiment was conducted to verify the effect of ameliorating bleomycin-induced pulmonary fibrosis (BIPF) already developed by repeatedly administering the composition of the present disclosure by inhalation to animals with pulmonary fibrosis. Here, experimental results are presented that are basically similar to Example 12, but bleomycin-induced pulmonary fibrosis (BIPF) was sufficiently generated 7 days after bleomycin treatment, and that the composition of the present disclosure has the ability to treat fibrotic diseases.
To establish a bleomycin-induced pulmonary fibrosis (PF) model, 8-week to 10-week-old female C57BL/6N mice were used, and divided into 4 groups (Normal, PBS Control, 0.00075% (w/w) rhHAPLN1, 0.0015% (w/w) rhHAPLN1), with 4 mice per group, and the IPF disease induction method was referred to the paper by Liu et al. (Methods in Molecular Biology 2017, DOI: 10.1007/978-1-4939-7113-8_2) (see FIG. 13A). […]
Starting 8 days after bleomycin administration, the control was a mixture of 50 μl of a stock solution consisting of 20 mM Tris-HCl, 0.5 M NaCl, pH 8.0, 50% glycerol and 10 ml PBS (1×, pH 7.4, Gibco Co.) solution. […] The weight of each experimental animal was measured every 2 days to confirm that there was no change in weight, and a mass dosing system and aerosol chamber (Data Science International Co., Ltd.) were used to generate the fog. […]
Next, three tissue slides were prepared per mouse by cutting the middle portion of the left large lobe of the mouse, and three sections were photographed randomly on one slide, and then, for a total of nine sections, the stained darker part was distinguished from the unstained white part, and the area of the stained darker part was measured using Image J software, and each figure obtained was averaged to obtain an average value per mouse. […]

[3] = test system: MyOF system (differentiated lung myofibroblasts); assay: BioMAP Fibrosis panel, MyoF system, ELISA; assay type: cell-based
Text: The anti-fibrotic action effect of the composition of the present disclosure on pulmonary fibrosis and kidney fibrosis was verified by examining the expression level of various fibrosis markers using the BioMAP Fibrosis Panel (provided by Eurofins discovery).
BioMAP Fibrosis panel consists of three models, SAEMyoF system (co-culturing small airway epithelial cells and adult fibroblasts), REMyOF system (co-culture of renal proximal tubule epithelial cells and adult fibroblasts), and MyOF system (differentiated lung myofibroblasts). Here, the SAEMyoF system represents interstitial lung diseases (IDL), including pulmonary fibrotic diseases such as idiopathic pulmonary fibrosis (IPF), and the REMyOF system represents kidney fibrosis disease, which is associated with end-stage renal failure. However, experiments were conducted to confirm the effect of the MyoF system only on myofibroblasts.
(1) Each primary cell was used by pooling cells from multiple donors (n=3 to 6), and cells were first cultured in 96-well plates to confluence before adding a peripheral blood mononuclear cell (PBMC).
(2) Subsequently, the cells were then each treated with the composition of the present disclosure (rhHAPLN1 protein content of 0, 3.7, 11, and 33 ng/ml) at different concentrations and cultured for 1 hour. […]
Each quantitative value was compared as a relative fold change compared to the vehicle control. […]

[4] = test system: human hepatic stellate cell (HHSC); assay: TGFβ1-induced fibrosis of human hepatic stellate cells, αSMA western blot; assay type: cell-based
Procedure: (1) Human hepatic stellate cells (primary human hepatic stellate cell (HHSC; iXCells Biotechnologies, 10HU-210) were seeded (1.5×10^5 cells/well) in a 6-well plate according to the experimental scheme in FIG. 2A and incubated in stellate cell growth medium (iXCells Biotechnologies, MD-0014) in an incubator at 37° C. 5% CO2 for 24 hours.
(2) After replacing with serum-free DMEM medium, the medium was incubated for 24 hours.
(3) The plates were then treated with TGF31 (2 ng/ml) to induce fibrosis and incubated for 24 hours.
(4) Afterwards, each well of the plate was then treated with the composition of the present disclosure at rhHAPLN1 protein content of 0, 3, 10, 30, and 100 ng/ml and pirfenidone 100 μg/mL and 200 μg/mL, respectively, and incubated for 24 hours.
(5) Each sample was then treated with cell lysis buffer and harvested.
(6) Western blotting was performed on the samples. Here, anti-αSMA Ab (Abcam, ab7817), anti-GAPDH Ab (Santa Cruz, sc-32233) were used as primary antibodies and HRP-conjugated anti-mouse IgG Ab (CST, #7076) as secondary antibodies to confirm the protein expression levels of αSMA and GAPDH.

| Molecule | level of TGFβ1 increased by bleomycin [1] | level of periostin increased by bleomycin [1] | H&E lung tissue form (FIG. 13B) ([2]; rhHAPLN1 0.0015% (w/w)) | reduction of average area of dark (fibrotic) lung area compared to pulmonary fibrosis without treatment (FIG. 13C) ([2]; rhHAPLN1 0.0015% (w/w), nebulized 1 hour once daily for 14 days from 8 days after bleomycin) [%] | Ashcroft score evaluation (FIG. 13E) ([2]; rhHAPLN1 nebulized from 8 days after bleomycin) | expression level of collagen I (MyoF system, FIG. 11C), fold change compared to vehicle control ([3]; in proportion to rhHAPLN1 content (3.7, 11, 33 ng/ml)) [fold] | expression level of collagen IV, fold change compared to vehicle control (FIG. 11C) ([3]; rhHAPLN1 33 ng/ml) [fold] | expression level of αSMA compared to composition that does not include rhHAPLN1 protein (FIG. 2C) ([4]; TGFβ1 (2 ng/ml) 24 h, then rhHAPLN1 3, 10, 30, 100 ng/ml 24 h) | anti-fibrotic action from αSMA western blot band, compared to pirfenidone (FIG. 2B) ([4]; all rhHAPLN1 contents, pirfenidone 100 and 200 μg/mL) | anti-fibrotic efficacy compared to pirfenidone at 100 μg/mL and 200 μg/mL ([4]; rhHAPLN1 3 ng/ml, αSMA) | rhHAPLN1 protein content showing the most excellent anti-fibrotic efficacy ([4]; αSMA) [ng/mL] |
| --- | --- | --- | --- | --- | --- | --- | --- | --- | --- | --- | --- |
| Cc1ccc(=O)n(-c2ccccc2)c1 [pirfenidone, reference compound] | decreased | decreased |  |  |  |  |  |  |  |  |  |
| B1 |  |  | quite similar to that of the normal group | 51 | excellent therapeutic effect | ≤ 0.8 | 0.7 | significantly lower | much better anti-fibrotic action compared to pirfenidone | much higher anti-fibrotic efficacy | 3 |
